From patent US10023629B2 (priority 2012, dated 2018)
“Also recorded” adds a separate entry of the source.

Columns and labels:
[1] = target: N1rec, tetrameric recombinant N1 Neuraminidase (Influenza A virus, UniProt Q30CC2); experiment: biochemical; parameters: species or system H5N1 A/crested eagle/Belgium/09/2004
H5N1 NIBRG-14 = experiment: microbe, parasite or virus in culture; assay type: cell-based, H5N1 influenza virus in MDCK cells
H5N1 NIBRG-23 = experiment: microbe, parasite or virus in culture; assay type: cell-based, H5N1 influenza virus in MDCK cells; conditions: Influenza A virus, H5N1, read-out: NIBRG-23, plaque size reduction
NIBRG-14ma virus = test system: NIBRG-14ma virus; parameters: species or system BALB/c mice; conditions: mouse, in vivo
[2] = target: N1rec, tetrameric recombinant N1 Neuraminidase (soluble recombinant H5N1 NA derived from A/crested e (influenza A virus A/crested eagle/Belgium/01/2004 (H5N1))); experiment: cell-based or functional assay
[3] = target: N1rec, tetrameric recombinant N1 Neuraminidase (soluble recombinant H5N1 NA derived from A/crested e (influenza A virus A/crested eagle/Belgium/01/2004 (H5N1))); experiment: SPR (Biacore 3000), N1rec immobilized on CM5 chip, VHHm injected
N1rec = assay type: binding, H5N1 A/crested eagle/Belgium/09/2004
[4] = target: N1rec, tetrameric recombinant N1 Neuraminidase (soluble recombinant H5N1 NA derived from A/crested e (influenza A virus A/crested eagle/Belgium/01/2004 (H5N1))); experiment: SPR, immobilized N1rec

Question: Which results are given for `CCOC(=O)C1=C[C@@H](OC(CC)CC)[C@H](NC(C)=O)[C@@H](N)C1` [Oseltamivir]?
Answer: IC50 [1]: 0.586 µM; IC50 (H5N1 NIBRG-14; Influenza A virus, H5N1, read-out: NIBRG-14, plaque size reduction): 15 µM; IC50 (H5N1 NIBRG-23): 73 µM; morbidity (body weight) (NIBRG-14ma virus): significant body weight loss; protection against lethality (NIBRG-14ma virus): protected the mice against lethality; also recorded: full protection; viral RNA in lung homogenates (RT-qPCR Ct) (NIBRG-14ma virus): only slightly different; survival (NIBRG-14ma virus; po, 1 mg/kg/day): 100%

B1: N1-3-VHHm (VHH)
VHH: QVQLQESGGGLVQPGGSLRLSCAASGSIFSIHDMGWYRRAPGKQRELVAAITSGGSTNYADSVKGRFTISRDNAKNTVSLQMNSLKPEDTAVYYCNAWGEDYGLGEYDSWGQGTQVTVSS
Question: Which results are given for B1?
Answer: IC50 of inhibition of the catalytic N1 NA activity (MUNANA, 160 ng N1rec) [2]: 0.425 µM; Kd [3]: 0.00037 µM; koff [3]: 0.0013 s⁻¹; kon [3]: 3.6e+06 M⁻¹ s⁻¹

B2: N1-7-VHHm: binding but non-inhibitory N1-VHHm control (protein)
VHH: QVQLQESGGGLVQPGGSLRLSCAASGSRFSRYDMGWYRQAPGKQRELVATITSGGITNYADSVKGRFTISRDNTKNTVYLQMNSLKPEDTAVYYCNAEDPLRAIQLGSLTYEYWGQGTQVTVSSHHHHHH
Question: How did the Koff (N1rec) turn out when B2 was run?
Answer: The Koff was 2.8E^−3 s^−1.

Question: What about the Kon (N1rec) of the same molecule?
Answer: The Kon was 4.4E^+4 M^−1 · s^−1.

Question: And the “binding to N1rec after prior binding of another N1-VHHm” value (N1rec)?
Answer: The value was “not affected”.

Question: What about the “fold lower affinity KD than N1-5-VHHm and N1-3-VHHm, respectively” value (N1rec) of the same molecule?
Answer: Its value is 10- to 100 fold.

Question: And the Kd (N1rec; read-out: KKD)?
Answer: The Kd was 0.063 µM.

Question: And the “size and number of NIBRG-14 plaques” value (H5N1 NIBRG-14)?
Answer: Its value is “did not affect the size or number”.

B3: N1-5-VHHm (VHH)
VHH: QVQLQESGGGLVQPGGSLRLSCAASGSDISIYEMGWYRQAPGKQRELVAAITSGGTTNYADSVKGRFTISRDNAKNTVYLQMNSLKPEDTAVYYCNAADFDLWEYDYWGQGTQVTVSS
Question: How did the IC50 of inhibition of the catalytic N1 NA activity (MUNANA, 160 ng N1rec) [2] turn out when B3 was run?
Answer: Its IC50 of inhibition of the catalytic N1 NA activity (MUNANA, 160 ng N1rec) is 0.375 µM.

Question: And the Kd [3]?
Answer: The Kd was 0.0047 µM.

Question: And the koff [3]?
Answer: Its koff is 0.00058 s⁻¹.

Question: What about the kon [3] of the same molecule?
Answer: The kon was 120000 M⁻¹ s⁻¹.

B4: N1-7-VHHm (VHH)
VHH: QVQLQESGGGLVQPGGSLRLSCAASGSRFSRYDMGWYRQAPGKQRELVATITSGGITNYADSVKGRFTISRDNTKNTVYLQMNSLKPEDTAVYYCNAEDPLRAIQLGSLTYEYWGQGTQVTVSS
Question: How did the fold lower affinity (KD) than N1-3-VHHm [4] turn out when B4 was run?
Answer: Its fold lower affinity (KD) than N1-3-VHHm is 100 fold.

Question: What about the fold lower affinity (KD) than N1-5-VHHm [4] of the same molecule?
Answer: The fold lower affinity (KD) than N1-5-VHHm was 10 fold.

Question: And the Kd [3]?
Answer: The Kd was 0.063 µM.

Question: What about the koff [3] of the same molecule?
Answer: The koff was 0.0028 s⁻¹.

Question: And the kon [3]?
Answer: Its kon is 44000 M⁻¹ s⁻¹.
